Results from patent publication US20210292396A1.

How the values were obtained:
Experiment in all cases: cell-based or functional assay
[1] = target: Env of HIV isolate 0260.v5.c36 (clade A) (HIV)
[2] = target: Env of HIV isolate 288.38 (clade C) (HIV)
[3] = target: Env of HIV isolate 3415.v1.c1 (clade A) (HIV)
[4] = target: Env of HIV isolate 6405.v4.c34 (clade D) (HIV)
[5] = target: Env of HIV isolate 89.6.DG (clade B) (HIV)
[6] = target: Env of HIV isolate A03349M1.vrc4a (clade D) (HIV)
[7] = target: Env of HIV isolate ADA.DG (clade B) (HIV)
[8] = target: Env of HIV isolate BB201.B42 (clade A) (HIV)
[9] = target: Env of HIV isolate BB539.2B13 (clade A) (HIV)
[10] = target: Env of HIV isolate BJOX009000.02.4 (clade AE) (HIV)
[11] = target: Env of HIV isolate Bal.01 (clade B) (HIV)
[12] = target: Env of HIV isolate C1080.c3 (clade AE) (HIV)
[13] = target: Env of HIV isolate CAAN.A2 (clade B) (HIV)
[14] = target: Env of HIV isolate CH117.4 (clade BC) (HIV)
[15] = target: Env of HIV isolate CM244.ec1 (clade AE) (HIV)
[16] = target: Env of HIV isolate CNE4 (clade B) (HIV)
[17] = target: Env of HIV isolate DU123.06 (clade C) (HIV)
[18] = target: Env of HIV isolate DU172.17 (clade C) (HIV)
[19] = target: Env of HIV isolate HXB2.DG (clade B) (HIV)
[20] = target: Env of HIV isolate KNH1209.18 (clade A) (HIV)
[21] = target: Env of HIV isolate PVO.04 (clade B) (HIV)
[22] = target: Env of HIV isolate SS1196.01 (clade B) (HIV)
[23] = target: Env of HIV isolate T251-18 (clade AG) (HIV)
[24] = target: Env of HIV isolate T255-34 (clade AG) (HIV)
[25] = target: Env of HIV isolate T280-5 (clade AG) (HIV)
[26] = target: Env of HIV isolate T33-7 (clade AG) (HIV)
[27] = target: Env of HIV isolate TH966.8 (clade AE) (HIV)
[28] = target: Env of HIV isolate TRO.11 (clade B) (HIV)
[29] = target: Env of HIV isolate X1193.c1 (clade G) (HIV)
[30] = target: Env of HIV isolate X2278.C2.B6 (clade B) (HIV)
[31] = target: Env of HIV isolate YU2.DG (clade B) (HIV)
[32] = target: Env of HIV isolate ZM135.10a (clade C) (HIV)
[33] = target: Env of HIV isolate ZM215.8 (clade C) (HIV)
[34] = target: Env of HIV isolate ZM249.1 (clade C) (HIV)
[35] = target: Envelope protein of SIVmac251.30.SG3 (clade NA)
[36] = target: HIV Env of isolate 0013095-2.11 (HIV)
[37] = target: HIV Env of isolate 16845-2.22 (HIV)
[38] = target: HIV Env of isolate 286.36 (HIV)
[39] = target: HIV Env of isolate 57128.vrc15 (HIV)
[40] = target: HIV Env of isolate 6644.v2.c33 (HIV)
[41] = target: HIV Env of isolate CNE15 (HIV)
[42] = target: HIV Env of isolate CNE30 (HIV)
[43] = target: HIV Env of isolate CNE7 (HIV)
[44] = target: HIV Env of isolate DU123.06 (HIV)
[45] = target: HIV Env of isolate NKU3006.ec1 (HIV)
[46] = target: HIV Env of isolate X1632.S2.B10 (HIV)
[47] = target: HIV Env of isolate X2131.C1.B5 (HIV)
[48] = target: HIV Env of isolate ZM215.8 (HIV)
[49] = target: HIV Env of isolate ZM53.12 (HIV)

B1: ePGT121.15 (ePGT121.15.H6 VH and ePGT121.15.L1 VL) (antibody, V domains shown)
VH: QMQLQESGPGLVKPGETLSLTCSVSGASISSSYWSWLRETPGKGLEWIGYTHHSGDTNYAPSLKSRVHLGLHPSKNQVSLSLTSVTAADTAVYYCARTLHGRRIYGVVAFNEFFTYFYWEVWGKGTQVTVSS
VL: SDISVAPGETVRISCGGESIGSRAVQWYQHRAGQAPKLIIYNNQDRPPGIPERFSGSPDIDFGTTATLTITNVEAGDEATYYCHIWDSRRPTNWVFGGGTTLTVL
IC50, pseudovirus neutralization [1]: 4 ng/mL | IC50, pseudovirus neutralization [2]: 1 ng/mL | IC50, pseudovirus neutralization [3]: 17 ng/mL | IC50, pseudovirus neutralization [4]: 3 ng/mL | IC50, pseudovirus neutralization [5]: 2 ng/mL | IC50, pseudovirus neutralization [6]: 6 ng/mL | IC50, pseudovirus neutralization [7]: 5 ng/mL | IC50, pseudovirus neutralization [8]: 3 ng/mL | IC50, pseudovirus neutralization [9]: > 50000 ng/mL | IC50, pseudovirus neutralization [10]: 183 ng/mL | IC50, pseudovirus neutralization [11]: 2 ng/mL | IC50, pseudovirus neutralization [12]: > 50000 ng/mL | IC50, pseudovirus neutralization [13]: 5 ng/mL | IC50, pseudovirus neutralization [14]: > 50000 ng/mL | IC50, pseudovirus neutralization [15]: 7020 ng/mL | IC50, pseudovirus neutralization [16]: 4 ng/mL | IC50, pseudovirus neutralization [17]: 3 ng/mL | IC50, pseudovirus neutralization [18]: 3 ng/mL | IC50, pseudovirus neutralization [19]: 11 ng/mL | IC50, pseudovirus neutralization [20]: 3 ng/mL | IC50, pseudovirus neutralization [21]: 6 ng/mL | IC50, pseudovirus neutralization [22]: 3 ng/mL | IC50, pseudovirus neutralization [23]: 56 ng/mL | IC50, pseudovirus neutralization [24]: 45 ng/mL | IC50, pseudovirus neutralization [25]: 4 ng/mL | IC50, pseudovirus neutralization [26]: > 50000 ng/mL | IC50, pseudovirus neutralization [27]: > 50000 ng/mL | IC50, pseudovirus neutralization [28]: 3 ng/mL | IC50, pseudovirus neutralization [29]: 3 ng/mL | IC50, pseudovirus neutralization [30]: 2 ng/mL | IC50, pseudovirus neutralization [31]: 5 ng/mL | IC50, pseudovirus neutralization [32]: 119 ng/mL | IC50, pseudovirus neutralization [33]: 17 ng/mL | IC50, pseudovirus neutralization [34]: 249 ng/mL | IC50, pseudovirus neutralization [35]: > 50000 ng/mL | IC80, pseudovirus neutralization [36]: 11900 ng/mL | IC80, pseudovirus neutralization [37]: 264 ng/mL | IC80, pseudovirus neutralization [38]: 6 ng/mL | IC80, pseudovirus neutralization [39]: 26 ng/mL | IC80, pseudovirus neutralization [40]: 8 ng/mL | IC80, pseudovirus neutralization [41]: > 50000 ng/mL | IC80, pseudovirus neutralization [42]: 27 ng/mL | IC80, pseudovirus neutralization [43]: 13 ng/mL | IC80, pseudovirus neutralization [44]: 8 ng/mL | IC80, pseudovirus neutralization [45]: > 50000 ng/mL | IC80, pseudovirus neutralization [46]: > 50000 ng/mL | IC80, pseudovirus neutralization [47]: 4 ng/mL | IC80, pseudovirus neutralization [48]: 47 ng/mL | IC80, pseudovirus neutralization [49]: 62 ng/mL
